# In patent publication US11260115B1, “Peptides and combination of peptides for use in immunotherapy against CLL and other cancers” (immatics biotechnologies GmbH, priority 2015, dated 2022):
# Biological target: HLA-A*02:01 (Homo sapiens, UniProt P04439, D140Y/D185E/D98H/E176V/E277Q/G131W/G231S/I119V/I121R/I166T/I218V/L300P/L318F/N151K/N90K/P208A/P217A/Q86G/Q94H/R138H/R169H/T345S)
# Assay: MHC binding assay (UV-ligand exchange, β2m ELISA, peptide exchange yield)
# Conditions: binding to HLA-A*02:01
# Summary of the method: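 Peptide-HLA-A*02:01 complexes formed by UV-mediated exchange of a photocleavable ligand; exchange yield measured by streptavidin-capture ELISA detecting β2m with HRP anti-β2m, TMB read at 450 nm. Refolded monomer standards 15-500 ng/ml; samples diluted 100-fold.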
row,"Peptide Exchange (MHC class I binding score, peptide exchange yield)",Substance
1,“+++” (>50 = +++),249 (LLPTGVFQV; listed as Homo sapiens) [compound 249]
2,“+++” (>50 = +++),250 (LLVQEPDGLMV; listed as Homo sapiens) [compound 250]
3,“+++” (>50 = +++),251 (LLYDNVPGA; listed as Homo sapiens) [compound 251]
4,“+++” (>50 = +++),252 (NLLDPGSSYLL; listed as Homo sapiens) [compound 252]
5,“+++” (>50 = +++),253 (NLWSVDGEVTV; listed as Homo sapiens) [compound 253]
6,“+++” (>50 = +++),254 (QLIPKLIFL; listed as Homo sapiens) [compound 254]
7,“+++” (>50 = +++),255 (YLFEEAISM; listed as Homo sapiens) [compound 255]
8,“+++” (>50 = +++),256 (QLLPVSNVVSV; listed as Homo sapiens) [compound 256]
9,“+++” (>50 = +++),258 (RLDYITAEI; listed as Homo sapiens) [compound 258]
10,“+++” (>50 = +++),259 (RLLDEQFAVL; listed as Homo sapiens) [compound 259]
11,“+++” (>50 = +++),260 (SLDDVEGMSV; listed as Homo sapiens) [compound 260]
12,“+++” (>50 = +++),261 (SLVEAQGWLV; listed as Homo sapiens) [compound 261]
13,“+++” (>50 = +++),262 (SLWNAGTSV; listed as Homo sapiens) [compound 262]
14,“+++” (>50 = +++),263 (SQWEDIHVV; listed as Homo sapiens) [compound 263]
15,“+++” (>50 = +++),264 (TILDYINVV; listed as Homo sapiens) [compound 264]
16,“+++” (>50 = +++),265 (TLLADDLEIKL; listed as Homo sapiens) [compound 265]
17,“++” (>20% = ++),266 (TLLDQLDTQL; listed as Homo sapiens) [compound 266]
18,“+++” (>50 = +++),267 (TLLDWQDSL; listed as Homo sapiens) [compound 267]
19,“+++” (>50 = +++),268 (TLLQVFHLL; listed as Homo sapiens) [compound 268]
20,“++” (>20% = ++),269 (TLTDEQFLV; listed as Homo sapiens) [compound 269]
21,“+++” (>50 = +++),270 (TVLPVPPLSV; listed as Homo sapiens) [compound 270]
22,“++” (>20% = ++),271 (VIRNIVEAA; listed as Homo sapiens) [compound 271]
23,“+++” (>50 = +++),272 (VLDELPPLI; listed as Homo sapiens) [compound 272]
24,“+++” (>50 = +++),273 (VLGEYSYLL; listed as Homo sapiens) [compound 273]
25,“+++” (>50 = +++),274 (VLLEYHIAYL; listed as Homo sapiens) [compound 274]
26,“+++” (>50 = +++),275 (VLLFIEHSV; listed as Homo sapiens) [compound 275]
27,“+++” (>50 = +++),276 (VLNDGAPNV; listed as Homo sapiens) [compound 276]
28,“++” (>20% = ++),277 (VMILKLPFL; listed as Homo sapiens) [compound 277]
